In patent US20220017616A1 (Amgen, published 2022):
“And” between values parts separate entries of the source, which are not always exact repeats. Identical values can stand only once.

T1: human CD155 on cells (human, UniProt P15151 21-417)
T1 construct: whole, on cells; also called huCD155
T1 sequence (looked up): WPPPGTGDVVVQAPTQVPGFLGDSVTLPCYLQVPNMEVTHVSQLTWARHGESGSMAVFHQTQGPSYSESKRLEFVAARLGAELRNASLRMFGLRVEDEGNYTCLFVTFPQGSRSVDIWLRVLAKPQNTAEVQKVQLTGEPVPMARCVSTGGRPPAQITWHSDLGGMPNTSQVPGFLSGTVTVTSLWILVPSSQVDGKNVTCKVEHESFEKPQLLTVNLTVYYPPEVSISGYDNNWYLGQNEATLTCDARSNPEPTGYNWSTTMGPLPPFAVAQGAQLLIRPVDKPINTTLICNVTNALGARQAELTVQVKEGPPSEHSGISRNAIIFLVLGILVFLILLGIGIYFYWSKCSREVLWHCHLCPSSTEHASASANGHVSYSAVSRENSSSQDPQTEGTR

T2: human TIGIT (human, UniProt Q495A1 22-244)
T2 sequence: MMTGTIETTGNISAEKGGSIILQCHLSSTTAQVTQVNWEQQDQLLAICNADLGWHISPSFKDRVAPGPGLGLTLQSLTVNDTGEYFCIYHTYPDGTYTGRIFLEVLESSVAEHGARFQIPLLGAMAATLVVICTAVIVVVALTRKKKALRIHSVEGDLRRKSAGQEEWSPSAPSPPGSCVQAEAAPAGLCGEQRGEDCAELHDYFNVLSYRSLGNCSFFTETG

T3: huTIGIT (PL44403) (human, UniProt Q495A1 22-141)
T3 construct: Soluble protein; also called Human TIGIT (Octet analyte, mono-Fc tag)
T3 sequence: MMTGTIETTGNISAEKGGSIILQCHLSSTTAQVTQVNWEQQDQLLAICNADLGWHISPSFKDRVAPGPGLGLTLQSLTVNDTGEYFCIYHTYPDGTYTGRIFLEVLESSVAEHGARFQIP

T4: human CD112R expressed on CHO K1 cells (pMSCV_FLAG_human CD112R (N81D)(41-326)_IRES_EGFP) (human, UniProt Q6DKI7 41-326)
T4 construct: also called huCD112R; human CD112R expressed on CHO cells; not shown: FLAG tag named in the vector
T4 sequence: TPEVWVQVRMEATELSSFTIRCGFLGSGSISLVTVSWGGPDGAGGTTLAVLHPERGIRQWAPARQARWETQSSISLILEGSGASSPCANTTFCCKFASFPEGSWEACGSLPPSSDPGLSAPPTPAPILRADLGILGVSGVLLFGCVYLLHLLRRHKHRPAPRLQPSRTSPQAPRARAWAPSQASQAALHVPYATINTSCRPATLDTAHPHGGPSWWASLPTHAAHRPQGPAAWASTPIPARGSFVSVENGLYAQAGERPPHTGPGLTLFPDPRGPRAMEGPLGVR


Legend:
[1] = target: T1, human CD155 on cells; assay: flow cytometry, CD226-Fc at 10 ug/mL on mock-transfected 293T cells
Description: In the presence of tool TIGIT antibodies, TIGIT expressed by TIGIT-293 cells is bound by tool antibodies and is blocked from binding to CD155, thereby allowing CD226 to interact with CD155. […] Cells were washed 1× with FACS Buffer and resuspended in FACS buffer. Samples were analyzed using a BD Accuri™ Flow Cytometer and an Intellicyt HyperCyt autoSampler.

[2] = target: T5, cynomolgus TIGIT (cynomolgus monkey); assay: flow cytometry on activated primary cyno PBMCs, fold over isotype control
T5 construct: Cell-surface form; also called cyno TIGIT
T5 sequence (chain, as listed by the source): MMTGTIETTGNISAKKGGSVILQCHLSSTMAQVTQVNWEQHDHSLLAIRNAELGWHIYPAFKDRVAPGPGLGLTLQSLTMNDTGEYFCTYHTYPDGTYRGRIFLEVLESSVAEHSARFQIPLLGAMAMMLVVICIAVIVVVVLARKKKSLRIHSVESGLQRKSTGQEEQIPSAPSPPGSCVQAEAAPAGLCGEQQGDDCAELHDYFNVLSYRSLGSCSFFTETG
Description: (§1) The binding of hybridoma supernatants to TIGIT expressed by primary human and cynomolgus monkey cells were tested by flow cytometry. For human primary cell binding assay, purified human T cells (Biological Specialty Corp.) were thawed and suspended at a concentration of 2.5×10⁶ cells/mL. […] After 72 hours, cells were removed, washed and suspended at a concentration of 0.5×10⁶ cells/mL with 10 ng/mL of IL-2 (Pepro Tech). Cells were then incubated for another 48 to 72 hours at 37° C./5% CO₂. For cynomolgus primary cell binding assay, cynomolgus PBMCs (SNBL) were thawed and suspended in a concentration between 4×10⁶ and 5×10⁶ cells/mL. […] After 72 hours, cells were removed, washed and suspended at a concentration of 0.5×10E6 cells/mL with 20 ng/mL of IL-2 (Pepro Tech). Cells were then incubated for another 48 to 72 hours at 37° C./5% CO₂. After the final incubation, cells were prepared for flow cytometry by incubation with normalized hybridoma supernatants, positive control antibodies and isotype control antibodies at 1 μg/mL final concentration. […] Cells were then run on BD FACSCanto II flow cytometer to detect anti-TIGIT antibody binding.

[3] = target: T2, human TIGIT; assay: cell-based or functional assay
[4] = target: T2, human TIGIT; assay: flow cytometry on CHO-S cells expressing human TIGIT, competitor huCD155-Fc-Alexa 647, at 1.7 µg/mL
Description: (§2) TIGIT-binding hybridoma supernatants were then tested for their ability to block TIGIT from binding ligand. […] The 7-AAD cell viability stain was then added and the cells incubated for a further 15 minutes at 4° C., washed twice and resuspended in FACS buffer. Samples were analyzed using a BD Accuri™ Flow Cytometer and an Intellicyt HyperCyt autoSampler.

[5] = target: T3, huTIGIT (PL44403); assay: Octet, antibody on anti-huIgG Fc capture tips, huTIGIT as analyte
Description: (§3) In the case of cynoTIGIT, association was monitored for 5 min and dissociation for 5 min. […] The limit of detection of dissociation is 4e-5 based on a minimum of 5% dissociation over 20 minutes.

[6] = target: T6, cynoTIGIT (PL40461) (cynomolgus monkey); assay: Octet, antibody on anti-huIgG Fc capture tips, cynoTIGIT as analyte
T6 construct: Soluble protein; also called Cyno TIGIT (Octet analyte)
T6 sequence (chain, as listed by the source limits assumed): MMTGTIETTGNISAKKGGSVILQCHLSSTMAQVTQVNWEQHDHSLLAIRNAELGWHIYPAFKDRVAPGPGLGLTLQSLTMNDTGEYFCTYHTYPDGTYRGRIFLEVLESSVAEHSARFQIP
Description: as §3

[7] = target: T2, human TIGIT; assay: flow cytometry, 1 µg/mL on activated primary human T cells, fold over isotype control
Description: as §1

[8] = target: T2, human TIGIT; assay: flow cytometry on CHO-S cells expressing human TIGIT, competitor CD112-Fc-Alexa 647, at 1 ug/mL
Description: as §2

[9] = target: T2, human TIGIT; assay: cell-based or functional assay; remark: listed apart in the source
[10] = target: T4, human CD112R expressed on CHO K1 cells …; assay: flow cytometry on CHO K1 cells expressing human CD112R
[11] = target: T5, cynomolgus TIGIT; assay: flow cytometry, 1 µg/mL on activated primary cyno PBMCs, fold over isotype control
Description: as §1

| Binder | binding result [1] | binding result [2] | Potency [nM], Jurkat human TIGIT/IL-2-luciferase RGA, n = 1 [3] [nM] | Potency [nM], Jurkat human TIGIT/IL-2-luciferase RGA, n = 2 [3] [nM] | % inhibition [4] [%] | Kd [5] [nM] | binding result [6] | FACS Geomean Fold [7] [fold] | % inhibition [8] [%] | activity in the primary CD8 memory T-cell assay (IFN-γ release, CHO-K1-CD155+ cells) [9] [pM] | EC50 [10] | FACS Geomean Fold [11] [fold] | Kd [6] [nM] |
| --- | --- | --- | --- | --- | --- | --- | --- | --- | --- | --- | --- | --- | --- |
| human CD226-Fc (Fc fusion, UniProt Q15762 19-247, looked up, not shown: a dimerising Fc or GST, also called huCD226; CD226-Fc (R&D, 666-DN)) EEVLWHTSVPFAENMSLECVYPSMGILTQVEWFKIGTQQDSIAIFSPTHGMVIRKPYAERVYFLNSTMASNNMTLFFRNASEDDVGYYSCSLYTYPQGTWQKVIQVVQSDSFEAAVPSNSHIVSEPGKNVTLTCQPQMTWPVQAVRWEKIQPRQIDLLTYCNLVHGRNFTSKFPRQIVSNCSHGRWSVIVIPDVTVSDSGLYRCYLQASAGENETFVMRLTVAEGKTDN | binds | – | – | – | – | – | – | – | – | – | – | – | – |
| 11A3 (antibody, V domains shown, Fully human XenoMouse antibody, tested as hybridoma supernatant or purified mAb) VH: QVQLVQSGAEVKKPGASVKVSCKASGYTFTSYYIHWVRQAPGQGLEWMGIINPSGGRTSYAQMFQGRVTLTRDTSTNTVYMELSSLRSEDTAVFYCAKDREEQWPVGGFDYWGQGTLVTVSS VL: DIQMTQSPSSLSASVGDRVTITCRASQNIRRYLNWYQQKPGKAPELLIYSASNLQNGVPSRFSGSGSGTDFTLTISSLQPEDFATYYCQQSYIIPPTFGQGTKVEIRR | – | no binding (tested: 1 µg/mL) | 1.9 | 2.7 | 100 | < 0.1 | no binding | 11.6 | 100 | – | – | – | – |
| 43B7 (antibody, V domains shown, Fully human XenoMouse antibody, tested as hybridoma supernatant or purified mAb) VH: QVQLQESGPGLVKPSQTLSLTCTVSGGSISSGGYYWSWIRQHPGKGLEWIGYIYYRGGTYYNPSLRSRVTMSVDTSKNQFSLMLSSVTAADTAVYYCARTIFGVIILDNWGQGTPVTVSS VL: DIQMTQSPSSLSASVGDRVTITCRSSQSISSYLNWYQQKPGRAPKLLIHAASSLQSGVPSRFSGSGSGTDFTLTISSLQPEDFASYCCQQSYTTPPTFGGGTKVEIKR | – | – | 3.4 | 2.5 | 100 | < 0.1 | – | 13.7 | 100 | 90 | – | 4.7 | 13 |

Continued, values first:

| binding result [1] | binding result [2] | Potency [nM], Jurkat human TIGIT/IL-2-luciferase RGA, n = 1 [3] [nM] | Potency [nM], Jurkat human TIGIT/IL-2-luciferase RGA, n = 2 [3] [nM] | % inhibition [4] [%] | Kd [5] [nM] | binding result [6] | FACS Geomean Fold [7] [fold] | % inhibition [8] [%] | activity in the primary CD8 memory T-cell assay (IFN-γ release, CHO-K1-CD155+ cells) [9] [pM] | EC50 [10] | FACS Geomean Fold [11] [fold] | Kd [6] [nM] | Binder |
| --- | --- | --- | --- | --- | --- | --- | --- | --- | --- | --- | --- | --- | --- |
| – | no binding (tested: 1 µg/mL) | 4.3 | 2.1 | 100 | < 0.1 | no binding | 14.4 | 97 | 160 | – | – | – | 28B8 (antibody, V domains shown, Fully human XenoMouse antibody, tested as hybridoma supernatant or purified mAb) VH: QVQLQESGPGLVKPSETLFLTCTVSGGSVTNYYWSWIRQPAGKGLEWIGRIYTSGSTYYNPSLKSRVTMSLDTSKNQFSLRLSSVTAADTAVYYCAREGFTMVRGVMGAFDIWGQGTMVTVSS VL: DIQMTQSPSSLSASVGDRVTITCRASQSIRRYLNWYQQIPGKAPKFLIYDASSLQSGVPSRFSGSGSGTDFTLTISSLQPEDFATYYCQQSYSTPPTFGQGTKVEIKR |
| – | – | – | – | – | – | – | – | – | – | 1.61 µg/mL and 12.8 nM | – | – | human CD112-Fc (Fc fusion, UniProt Q92692 32-360, looked up, not shown: a dimerising Fc or GST, treated as the same reagent; also called Human CD112 Ligand; CD112 ligand) QDVRVQVLPEVRGQLGGTVELPCHLLPPVPGLYISLVTWQRPDAPANHQNVAAFHPKMGPSFPSPKPGSERLSFVSAKQSTGQDTEAELQDATLALHGLTVEDEGNYTCEFATFPKGSVRGMTWLRVIAKPKNQAEAQKVTFSQDPTTVALCISKEGRPPARISWLSSLDWEAKETQVSGTLAGTVTVTSRFTLVPSGRADGVTVTCKVEHESFEEPALIPVTLSVRYPPEVSISGYDDNWYLGRTDATLSCDVRSNPEPTGYDWSTTSGTFPTSAVAQGSQLVIHAVDSLFNTTFVCTVTNAVGMGRAEQVIFVRETPNTAGAGATGG |
